Test results: patent publication US20090263864A1 (CRUCELL HOLLAND B V, published 2009)

Target: T1, CD46 on human coloncarcinoma LS174T cells (human, UniProt P15529 35-392)
T1 construct: whole, on cells
T1 sequence (looked up): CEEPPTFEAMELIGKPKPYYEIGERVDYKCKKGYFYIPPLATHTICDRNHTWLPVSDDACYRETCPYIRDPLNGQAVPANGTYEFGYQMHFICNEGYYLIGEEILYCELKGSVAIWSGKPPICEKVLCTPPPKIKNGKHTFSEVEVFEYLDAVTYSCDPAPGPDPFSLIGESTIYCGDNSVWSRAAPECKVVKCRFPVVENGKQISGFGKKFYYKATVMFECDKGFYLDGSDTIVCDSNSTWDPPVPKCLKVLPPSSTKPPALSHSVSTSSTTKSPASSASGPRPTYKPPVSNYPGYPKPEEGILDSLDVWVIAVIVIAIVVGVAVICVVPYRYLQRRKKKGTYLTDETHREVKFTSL
Assay: FACS on LS174T cells preincubated with normal human serum; biotinylated antibody, streptavidin-PE; MFI
Procedure: Binding (MFI, ordinate) was determined by FACS after incubation with streptavidin-conjugated phycoerythrin.

B1: K53 IgG (antibody, V domains shown)
VH: QVQLVQSGAEVKKPGASVKVSCKASGYTFTSYGISWVRQAPGQGLEWMGWISAYNGNTNYAQKLQGRVTMTTDTSTSTAYMELRSLRSDDTAVYYCARGMMRGVFDYWGQGTLVTVST
VL: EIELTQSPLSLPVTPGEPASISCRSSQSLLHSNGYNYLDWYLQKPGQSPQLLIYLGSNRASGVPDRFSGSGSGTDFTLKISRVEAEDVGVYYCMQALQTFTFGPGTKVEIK
notes: also called clone K53; anti-CD46 clone K53
For B1, the “EC50 (read off the curve)” value was roughly 3 µg/mL.
